Experimental data as given in patent US20150065381A1.
Where “and” joins values, the source holds several entries; their conditions need not be identical. Equal entries are not always repeated.

Key:
[1] = target: HIV-1 envelope clone G-011.c05 (multiclade gp160 clone panel) (HIV-1); experiment: capture ELISA, plate 2, mAb 0.8 ug/ml
[2] = target: HIV-1 envelope of gp160 clone B-Acute-008.c11 (HIV-1); experiment: capture ELISA, plate 2, mAb 0.8 ug/ml
[3] = target: HIV-1 envelope of gp160 clone B-Acute-009-c08 (HIV-1); experiment: capture ELISA, plate 2, mAb 0.8 ug/ml
[4] = target: HIV-1 envelope of gp160 clone AG-010.c11 (HIV-1); experiment: capture ELISA, plate 2, mAb 0.8 ug/ml
[5] = target: HIV-1 envelope of gp160 clone B-Acute-010.c09 (HIV-1); experiment: capture ELISA, plate 2, mAb 0.8 ug/ml
[6] = target: HIV-1 envelope of gp160 clone B-Acute-010.c08 (HIV-1); experiment: capture ELISA, plate 2, mAb 0.8 ug/ml
[7] = target: HIV-1 16055 envelope (HIV-1); experiment: capture ELISA, plate 2, mAb 0.8 ug/ml
[8] = target: HIV-1 envelope clone BF-002.c08 (multiclade gp160 clone panel) (HIV-1); experiment: capture ELISA, plate 2, mAb 0.8 ug/ml
[9] = target: HIV-1 envelope clone G-011.c02 (multiclade gp160 clone panel) (HIV-1); experiment: capture ELISA, plate 2, mAb 0.8 ug/ml
[10] = target: HIV-1 envelope clone F1-002.c11 (multiclade gp160 clone panel) (HIV-1); experiment: capture ELISA, plate 2, mAb 0.8 ug/ml
[11] = target: HIV-1 envelope clone F1-002.c16 (multiclade gp160 clone panel) (HIV-1); experiment: capture ELISA, plate 2, mAb 0.8 ug/ml
[12] = target: HIV-1 envelope clone BF-002.c05 (multiclade gp160 clone panel) (HIV-1); experiment: capture ELISA, plate 2, mAb 0.8 ug/ml
[13] = target: HIV-1 JRCSF envelope (HIV-1) (UniProt P20871); experiment: capture ELISA, plate 1, mAb 2.5 ug/ml
[14] = target: HIV-1 envelope clone G-011.c05 (multiclade gp160 clone panel) (HIV-1); experiment: capture ELISA, plate 1, mAb 2.5 ug/ml
[15] = target: HIV-1 envelope of gp160 clone B-Acute-008.c11 (HIV-1); experiment: capture ELISA, plate 1, mAb 2.5 ug/ml
[16] = target: HIV-1 envelope of gp160 clone B-Acute-009-c08 (HIV-1); experiment: capture ELISA, plate 1, mAb 2.5 ug/ml
[17] = target: HIV-1 envelope of gp160 clone AG-010.c11 (HIV-1); experiment: capture ELISA, plate 1, mAb 2.5 ug/ml
[18] = target: HIV-1 envelope of gp160 clone B-Acute-010.c09 (HIV-1); experiment: capture ELISA, plate 1, mAb 2.5 ug/ml
[19] = target: HIV-1 envelope of gp160 clone B-Acute-010.c08 (HIV-1); experiment: capture ELISA, plate 1, mAb 2.5 ug/ml
[20] = target: HIV-1 16055 envelope (HIV-1); experiment: capture ELISA, plate 1, mAb 2.5 ug/ml
[21] = target: HIV-1 envelope clone BF-002.c08 (multiclade gp160 clone panel) (HIV-1); experiment: capture ELISA, plate 1, mAb 2.5 ug/ml
[22] = target: HIV-1 envelope clone G-011.c02 (multiclade gp160 clone panel) (HIV-1); experiment: capture ELISA, plate 1, mAb 2.5 ug/ml
[23] = target: HIV-1 envelope clone F1-002.c11 (multiclade gp160 clone panel) (HIV-1); experiment: capture ELISA, plate 1, mAb 2.5 ug/ml
[24] = target: HIV-1 envelope clone F1-002.c16 (multiclade gp160 clone panel) (HIV-1); experiment: capture ELISA, plate 1, mAb 2.5 ug/ml
[25] = target: HIV-1 JRFL envelope (HIV-1); experiment: capture ELISA, plate 1, mAb 2.5 ug/ml
[26] = target: HIV-1 envelope clone BF-002.c05 (multiclade gp160 clone panel) (HIV-1); experiment: capture ELISA, plate 1, mAb 2.5 ug/ml
[27] = target: HIV-1 envelope of gp160 clone B-Chronic-014.c02 (HIV-1); experiment: capture ELISA, plate 1, mAb 2.5 ug/ml
[28] = target: HIV-1 envelope of gp160 clone AG-010.c14 (HIV-1); experiment: capture ELISA, plate 1, mAb 2.5 ug/ml
[29] = target: BG505 envelope (gp120 monomer released from lysed pseudovirus) (HIV-1); experiment: antigen capture ELISA, mAb 0.3 ug/ml, plate 2
[30] = target: aMLV envelope (from lysed pseudovirus); experiment: antigen capture ELISA, mAb 0.3 ug/ml, plate 2
[31] = target: HIV-1 JRCSF envelope (HIV-1) (UniProt P20871); experiment: capture ELISA, plate 2, mAb 0.3 ug/ml
[32] = target: HIV-1 envelope clone G-011.c05 (multiclade gp160 clone panel) (HIV-1); experiment: capture ELISA, plate 2, mAb 0.3 ug/ml
[33] = target: HIV-1 envelope of gp160 clone AG-010.c11 (HIV-1); experiment: capture ELISA, plate 2, mAb 0.3 ug/ml
[34] = target: HIV-1 envelope of gp160 clone B-Acute-010.c08 (HIV-1); experiment: capture ELISA, plate 2, mAb 0.3 ug/ml
[35] = target: HIV-1 envelope clone BF-002.c08 (multiclade gp160 clone panel) (HIV-1); experiment: capture ELISA, plate 2, mAb 0.3 ug/ml
[36] = target: HIV-1 envelope clone BF-002.c05 (multiclade gp160 clone panel) (HIV-1); experiment: capture ELISA, plate 2, mAb 0.3 ug/ml
[37] = target: HIV-1 envelope of gp160 clone AG-010.c14 (HIV-1); experiment: capture ELISA, plate 2, mAb 0.3 ug/ml

| Substance | ELISA OD [1] | ELISA OD [2] | ELISA OD [3] | ELISA OD [4] | ELISA OD [5] | ELISA OD [6] | ELISA OD [9] | ELISA OD [13] | ELISA OD [14] | ELISA OD [15] | ELISA OD [16] | ELISA OD [17] | ELISA OD [18] | ELISA OD [19] | ELISA OD [22] | ELISA OD [27] | ELISA OD [28] | ELISA OD [29] | ELISA OD [30] | ELISA OD [31] | further results |
| --- | --- | --- | --- | --- | --- | --- | --- | --- | --- | --- | --- | --- | --- | --- | --- | --- | --- | --- | --- | --- | --- |
| PGT151 (antibody) | 0.079 OD | 0.203 OD | 0.082 OD | 0.061 OD | 0.087 OD | 0.135 OD | 0.081 OD | 0.087 OD and 0.063 OD | 0.073 OD | 0.152 OD | 0.076 OD | 0.062 OD | 0.06 OD | 0.243 OD | 0.067 OD | 0.206 OD | 0.164 OD | 0.057 OD | 0.053 OD and 0.128 OD | 0.069 OD and 0.065 OD | ELISA OD [7]: 0.06 OD; ELISA OD [8]: 0.054 OD; ELISA OD [10]: 0.072 OD; ELISA OD [11]: 0.082 OD; ELISA OD [12]: 0.133 OD; ELISA OD [20]: 0.091 OD and 0.061 OD; ELISA OD [21]: 0.062 OD; ELISA OD [23]: 0.063 OD; ELISA OD [24]: 0.081 OD; ELISA OD [25]: 0.078 OD and 0.06 OD; ELISA OD [26]: 0.148 OD; ELISA OD [32]: 0.057 OD; ELISA OD [33]: 0.075 OD; ELISA OD [34]: 0.149 OD; ELISA OD [35]: 0.09 OD; ELISA OD [36]: 0.1 OD; ELISA OD [37]: 0.121 OD |
| PG9 (antibody) | 0.116 OD | 0.11 OD | 0.062 OD | 0.411 OD | 0.067 OD | 0.125 OD | 0.052 OD | 0.356 OD and 0.338 OD | 0.308 OD | 0.281 OD | 0.095 OD | 0.759 OD | 0.133 OD | 0.313 OD | 0.068 OD | 1.79 OD | 0.988 OD | 0.162 OD | 0.057 OD and 0.063 OD | 0.113 OD and 0.131 OD | ELISA OD [7]: 0.169 OD and 0.18 OD; ELISA OD [20]: 0.364 OD and 0.308 OD; ELISA OD [25]: 0.068 OD and 0.077 OD; ELISA OD [32]: 0.076 OD; ELISA OD [33]: 0.257 OD; ELISA OD [34]: 0.079 OD; ELISA OD [37]: 0.274 OD |
| PGT145 (antibody) | 0.096 OD | 0.095 OD | 0.178 OD | 0.074 OD | 0.065 OD | 0.125 OD | 0.071 OD | 0.071 OD and 0.061 OD | 0.087 OD | 0.101 OD | 0.078 OD | 0.06 OD | 0.068 OD | 0.277 OD | 0.068 OD | 0.064 OD | 0.065 OD | 0.066 OD | 0.065 OD and 0.157 OD | 0.067 OD and 0.115 OD | ELISA OD [7]: 0.067 OD and 0.064 OD; ELISA OD [8]: 0.057 OD; ELISA OD [10]: 0.067 OD; ELISA OD [11]: 0.375 OD; ELISA OD [12]: 0.192 OD; ELISA OD [20]: 0.115 OD and 0.06 OD; ELISA OD [21]: 0.066 OD; ELISA OD [23]: 0.089 OD; ELISA OD [24]: 0.316 OD; ELISA OD [25]: 0.06 OD; ELISA OD [26]: 0.22 OD; ELISA OD [32]: 0.074 OD; ELISA OD [33]: 0.075 OD; ELISA OD [34]: 0.088 OD; ELISA OD [35]: 0.088 OD; ELISA OD [36]: 0.114 OD; ELISA OD [37]: 0.061 OD |
| PG16 (antibody) | 0.097 OD | 0.146 OD | 0.058 OD | 0.173 OD | 0.105 OD | 0.132 OD | 0.062 OD | 0.206 OD and 0.164 OD | 0.126 OD | 0.189 OD | 0.074 OD | 0.216 OD | 0.124 OD | 0.186 OD | 0.065 OD | 0.398 OD | 0.485 OD | 0.067 OD | 0.096 OD and 0.103 OD | 0.133 OD and 0.167 OD | ELISA OD [8]: 0.103 OD; ELISA OD [10]: 0.12 OD; ELISA OD [11]: 0.302 OD; ELISA OD [12]: 0.586 OD; ELISA OD [20]: 0.185 OD and 0.131 OD; ELISA OD [21]: 0.146 OD; ELISA OD [23]: 0.142 OD; ELISA OD [24]: 0.129 OD; ELISA OD [25]: 0.085 OD and 0.088 OD; ELISA OD [26]: 0.639 OD; ELISA OD [32]: 0.095 OD; ELISA OD [33]: 0.167 OD; ELISA OD [34]: 0.11 OD; ELISA OD [35]: 0.097 OD; ELISA OD [36]: 0.361 OD; ELISA OD [37]: 0.337 OD |
| PGV04 (antibody) | 0.168 OD | 0.094 OD | 0.095 OD | 0.103 OD | 0.913 OD | 0.659 OD | 0.326 OD | 1.53 OD and 1.78 OD | 0.256 OD | 0.059 OD | 0.123 OD | 0.136 OD | 1.73 OD | 1.34 OD | 0.601 OD | 4 OD | 0.241 OD | 0.45 OD | 0.095 OD and 0.115 OD | 0.525 OD and 0.588 OD | ELISA OD [8]: 1.37 OD; ELISA OD [10]: 0.084 OD; ELISA OD [11]: 0.139 OD; ELISA OD [12]: 2.07 OD; ELISA OD [21]: 2.2 OD; ELISA OD [23]: 0.145 OD; ELISA OD [24]: 0.242 OD; ELISA OD [26]: 4 OD; ELISA OD [32]: 0.123 OD; ELISA OD [33]: 0.103 OD; ELISA OD [34]: 0.303 OD; ELISA OD [35]: 0.758 OD; ELISA OD [36]: 1 OD; ELISA OD [37]: 0.096 OD |
